# From patent publication US12460006B2, “Antibodies against integrin alpha 11 beta 1” (Momenta Pharmaceuticals, Inc., priority 2019, dated 2025)
# Experiments:
# [1] = system: Human Pulmonary Fibroblasts; assay: Fibroblast-to-Myofibroblasts Transition (FMT), αSMA expression; format: cell-based; conditions: for inhibition of αSMA expression / FMT: TGFβ-induced FMT; for Inhibition of FMT: Yes/No
# Summary of the method: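 Cells seeded at 20,000/well, serum-starved 24 h, then given TGFβ-1 with or without anti-α11 antibodies for 48 h; polyclonal anti-α11 and isotype IgG served as controls. Fixed, permeabilized cells were stained for αSMA and analysed by flow cytometry (single-cell gMFI). Values are normalized to untreated control as % inhibition.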
# [2] = system: CHO cell lines expressing α11; assay: Collagen gel contraction assay; format: cell-based, human; conditions: for Inhibition of CHO-K1 gel contraction: Yes/No; for inhibition of CHO-hu α11-mediated collagen gel contraction: vs untreated
# Method: 24-well plates were blocked with 2% BSA in PBS overnight at 37° C. The following day, the plates were washed 3 times with PBS before being used in the assay. Human CHO cell lines expressing α11 were harvested and resuspended at 1.25×10^6 in ExpiCHO Expression Medium (Gibco™ Cat #A2910002). The collagen gel solution was prepared by diluting 3 mg/mL stock collagen type I (Gibco™ Collagen I Rat Protein, Tail Cat #A1048301) to 1 mg/mL in the media containing the CHO cells. Sodium hydroxide was added to the solution to neutralize the pH and 400 μL of the collagen solution was added to each well of the 24-well plates. For the wells where the antibodies were included in the collagen gel solution, CHO cells were prepared at 2.5×10^6 and the antibodies were prepared at 2× final concentration in ExpiCHO media. The cells and antibodies were then combined 1:1 before the addition of the stock collagen type 1. The gels were allowed to polymerize for 60 minutes at 37° C. Antibodies were added to the ExpiCHO media, which was then layered on top of the polymerized gel (400 μL/well). The gels were incubated for 6 days at 37° C. before gel contraction was quantified. Images of each well were analyzed using Image J and gel contraction was determined as a percentage of the initial gel area.
# Selected exemplary antibodies were tested for the ability to inhibit cell-mediated 3D gel contraction because this ability is directly linked to the functionality of the exemplary antibodies.
# α11β1 I Domain = molecular target: T1, α11β1 I Domain (Homo sapiens, UniProt Q9UKX5); assay: SPR binding to α11β1 I Domain; conditions: SPR data
# T1 sequence (Q9UKX5 164-345 limits assumed): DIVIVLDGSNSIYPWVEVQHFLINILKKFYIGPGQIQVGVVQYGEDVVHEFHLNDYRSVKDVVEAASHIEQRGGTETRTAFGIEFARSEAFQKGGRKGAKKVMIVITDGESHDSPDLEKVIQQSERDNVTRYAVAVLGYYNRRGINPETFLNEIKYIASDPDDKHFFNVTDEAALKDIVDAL
# Method: (§1) The affinity of antibodies for human α11β1 was measured by surface plasmon resonance assay (SPR). Affinity was measured at pH 7.6 and 25° C. with a Biacore T200 instrument. Anti-HIS antibody was immobilized on the SPR sensor surface using EDC/NHS covalent attachment. HIS-tagged human α11β1 was captured on the sensor surface and a single-cycle kinetics assay was used. Increasing concentrations of test antibody were injected in series over the sensor-bound α11β1. Dissociation was monitored for 1000 seconds. A sensor surface with only anti-HIS antibody and a series of blank injections were used to double-reference subtract the data. A 1:1 Langmuir model was fit to the data to estimate the kinetic association and dissociation constants. The affinity (equilibrium dissociation constant) of the interaction was calculated by dividing the kinetic dissociation constant by the kinetic association constant. Between injection cycles α11β1 and bound antibody were removed with an injection of 10 mM glycine at pH 1.5.
# (§2) The binding affinity of antibodies for the α11β1 Headpiece and α11β1 I Domain as measured by SPR is shown in FIG. 10A and FIG. 10B, respectively.
# α11β1 Headpiece = assay: SPR binding to α11β1 Headpiece; design: species or system human; conditions: SPR data
# Method: as §1, §2
# A549 cells = assay: Tumor xenograft model; format: in vivo, C.B-17 SCID mice; conditions: for Days to Volume Doubling (ave, 95% CI): intraperitoneal every 3 days, 7 doses; for inhibition of tumor growth compared to isotype control: A549 xenograft, SCID mice
# Method: Fifty-six female C.B-17 SCID mice were inoculated with A549 cells (5×10^6 cells/mouse) subcutaneously in the flank. Once tumor volume reached ˜100 mm^3, animals were randomized amongst 7 groups of 8 mice each. Mice were then treated intraperitonealy every 3 days for a total of 7 doses with isotype controls or novel mAbs 79E3E3, 16E10 and 9G04 (2 and 20 mg/kg) or with docetaxel at 10 mg/kg every 4 days for a total of 6 doses. Tumor volumes and body weights were recorded twice a week with a gap of 2-3 days in between two measurements until any of the following conditions defined were observed: loss of 20% or more body weight; tumors that inhibit normal physiological function such as eating, drinking, and mobility; ulcerated tumors; tumor size greater than 2000 mm^3 and clinical observations of prostration, paralysis, seizures and hemorrhages.
# In this example, studies were performed to determine if inhibition of α11β1 function with mAb results in xenograft growth inhibition. As shown in FIG. 16 and Table 4, blocking α11β1 on mouse CAFs impeded xenograft growth in SCID mice.
Molecule,binding to the I domain of α11β1 (α11β1 I Domain),binding to the headpiece domain of α11β1 (α11β1 Headpiece),inhibition of αSMA expression / FMT [1],Inhibition of FMT [1],Inhibition of CHO-K1 gel contraction [2],inhibition of CHO-hu α11-mediated collagen gel contraction [2],"Days to Volume Doubling (ave, 95% CI) (A549 cells; 2mpk)","Days to Volume Doubling (ave, 95% CI) (A549 cells; 20mpk)",inhibition of tumor growth compared to isotype control (A549 cells)
"24E4G6: rat anti-α11β1 mAb; VH SEQ ID NO: 147, VL SEQ ID NO: 148 (antibody, V domains shown) VH: MELELSLIFIFSLLKDVQCEVQLVESGGSLVQPGGSLKLSCVASGYTFSNYWMDWVRQSPGKSLEWIGEINTDGRRTNYAPSIKDRFTISRDNAKSTLYLQMSNVKSDDTAIYYCTILRVYPHYFDYWGQGVMVTVSS VL: MMSPAQFLFLLMLWIQEARGDVVMTQTPPSLSVAIGQSVSISCKSSQSLVYSDGETYLHWFLQSPGRSPKRLIYHVSNLGSGVPDRFSGTGSLTDFTLRISRVEAEDLGVYYCAQTTHFPPTFGAGTKLELK",,,significantly inhibited αSMA expression,Yes,Yes,,,,
"9-B11: mouse anti-α11β1 mAb; VH SEQ ID NO: 115, VL SEQ ID NO: 116 (antibody, V domains shown) VH: QVQLQQPGAELVRPGTSVKLSCKASGYTFTSYWMHWVQQRPGQGLEWIGVIDPSDSYTNYNQKFKGKATLTVDTSSSSAYMQLSSLTSEDSAVYYCARDDVAMDYWGQGTSVTVSS VL: DIVVTQSPASLAVSLGQRATISCRASESVDSYGNSFIHWYQQKPGQPPKLLIYRASNLKSGIPARFSGSGSRTDFTLTINPVEADDVATYYCQQSNEDPYTFGGGTKLEIK",,,,Yes,No,,,,
"16G7: rabbit anti-α11β1 mAb; heavy chain SEQ ID NO: 159, light chain SEQ ID NO: 160 (antibody) heavy: METGLRWLLLVAVFKGVQCQEQLVESGGDLVKPGASLTLTCTASGFSFNKNYWMCWVRQAPGKGLEWIGCIYNGDGNTYYASWVNGRFTISKTSSTTVTLQMTSLTVADTAIYFCARLLNMWGPGTLVTVSSGQPKAPSVFPLAPCCGDTPSSTVTLGCLVKGYLPEPVTVTWNSGTLTNGVRTFPSVRQSSGLYSLSSVVSVTSSSQPVTCNVAHPATNTKVDKTVAPSTCSKPMCPPPELPGGPSVFIFPPKPKDTLMISRTPEVTCVVVDVSQDDPEVQFTWYINNEQVRTARPPLREQQFNSTIRVVSTLPIAHQDWLRGKEFKCKVHNKALPAPIEKTISKARGQPLEPKVYTMGPPREELSSRSVSLTCMINGFYPSDISVEWEKNGKAEDNYKTTPTVLDSDGSYFLYSKLSVPTSEWQRGDVFTCSVMHEALHNHYTQKSISRSPGK light: MDTRAPTQLLGLLLLWLPGARCADIVMTQTPASVEAAVGGTVTIKCQASESIGNALAWYQQKPGQPPKLLIYTAATLASGVPSRFSGSGSGTEFTLTISGVQCDDAATYYCQSYYFTSVSSYGNAFGGGTEVVVKGDPVAPTVLIFPPAADQVATGTVTIVCVANKYFPDVTVTWEVDGTTQTTGIENSKTPQNSADCTYNLSSTLTLTSTQYNSHKEYTCKVTQGTTSVVQSFNRGDC",,,inhibit FMT,Yes,No,,,,

# More lines, main results first:
binding to the I domain of α11β1 (α11β1 I Domain),binding to the headpiece domain of α11β1 (α11β1 Headpiece),Molecule,inhibition of αSMA expression / FMT [1],Inhibition of FMT [1],Inhibition of CHO-K1 gel contraction [2],inhibition of CHO-hu α11-mediated collagen gel contraction [2],"Days to Volume Doubling (ave, 95% CI) (A549 cells; 2mpk)","Days to Volume Doubling (ave, 95% CI) (A549 cells; 20mpk)",inhibition of tumor growth compared to isotype control (A549 cells)
do not bind,do not bind,"16E10: rabbit anti-α11β1 mAb; heavy chain SEQ ID NO: 161, light chain SEQ ID NO: 162 (antibody) heavy: METGLRWLLLVAVLKGVQCQSLEESGGDLVKPGASLTLTCRVSGFSFSSSYYMCWVRQAPGKGLEWIACIGTTRGSTYYATWAKGRFTISKISSTTVTLQMTSLTDADTATYFCARDATGYRINTIGLYFNLWGPGTLVTVSSGQPKAPSVFPLAPCCGDTPSSTVTLGCLVKGYLPEPVTVTWNSGTLTNGVRTFPSVRQSSGLYSLSSVVSVTSSSQPVTCNVAHPATNTKVDKTVAPSTCSKPMCPPPELPGGPSVFIFPPKPKDTLMISRTPEVTCVVVDVSQDDPEVQFTWYINNEQVRTARPPLREQQFNSTIRVVSTLPIAHQDWLRGKEFKCKVHNKALPAPIEKTISKARGQPLEPKVYTMGPPREELSSRSVSLTCMINGFYPSDISVEWEKNGKAEDNYKTTPTVLDSDGSYFLYSKLSVPTSEWQRGDVFTCSVMHEALHNHYTQKSISRSPGK light: MDTRAPTQLLGLLLLWLPGARCAFELTQTPSSVEAAVGGTPTIKCQASQTIYSYLSWYQQKPGQPPKLLIYEASKLASGVPSRFSGSGSGTDYTLTISDLECADAATYYCQSYHGTASTEYNTFGGGTEVVVRGDPVAPTVLIFPPAADQVATGTVTIVCVANKYFPDVTVTWEVDGTTQTTGIENSKTPQNSADCTYNLSSTLTLTSTQYNSHKEYTCKVTQGTTSVVQSFNRGDC",inhibit both ligand binding and FMT,Yes,Yes,inhibited CHO-hu α11-mediated collagen gel contraction,"7.9 (7.5, 8.3) Days","7.9 (7.5, 8.3) Days",no significant inhibition of tumor growth
do bind,,"9-G05: mouse anti-α11β1 mAb; VH SEQ ID NO: 103, VL SEQ ID NO: 104 (antibody, V domains shown) VH: EVQLQQSGPELVKPGASVKIPCKASGYTFPDYNMDWVKQSHGKSLEWIGYINPDNGGTIYNQKFKGKATLTVDKSSSTAYMELRSLTSEDTAVYYCARLDSSGYGYYAMDYWGQGTSVTVSS VL: DIVLTQSPASLAVSLGQRATISCRASESVDNYGISFMHWYQQKPGQPPKLLIYRASNLDSEIPARFSGSGSRTDFTLTIDPVETDDVATYYCQQSYKDPRTFGGGTKLEIK",FMT inhibitors,Yes,Yes,inhibited CHO-hu α11-mediated collagen gel contraction,,,
do bind,,"79E3E3: rat anti-α11β1 mAb; VH SEQ ID NO: 145, VL SEQ ID NO: 146 (antibody, V domains shown) VH: MDWLWNLLFLMVVAQSAQAQIQLVQSGPEVKKPGESVKISCKASGYTFTDYAMNWVKQAPGNGLKWMGWINTQTGKPTYADDFKQRFVFSLETSARTTYLQINNLNIEDTATYFCTRLGTGNTKGFAYWGQGTLVTVSS VL: MESQTHVLISLLLCVSGTCGDILINQSPASLTVSAGERVTMSCKSSQSLLYSENNQDYLAWYQQKPGQFPKLLIYGASNRHTGVPDRFTGSGSGTDFTLTISSVQAEDLADYYCEQTYRYPFTFGSGTKLEIK",failed to decrease αSMA expression,No,Yes,inhibited CHO-hu α11-mediated collagen gel contraction,"8.5 (8.0, 9.0) Days","8.5 (8.0, 9.0) Days",significantly inhibited tumor growth
